Experimental data as given in the Immune Epitope Database (IEDB).

Target: HLA-A*33:03
Assay: IEDB peptide-MHC binding, purified MHC/competitive/fluorescence; filed as Kd, often an IC50 or EC50 that approximates it; ≥ and ≤ were set here for values at or beyond the usual limits of such assays
Details: source organism: Homo sapiens

| Sequence | Kd [nM] |
| --- | --- |
| DIYNHRFHR | 2.4 |
| DTYLHRVAR | 2.19 |
| EFFIPRVGR | 1.47 |
| EFFSINAQR | 0.28 |
| ELFDFLHAR | 1.68 |
| ETFPQRHMR | 3.14 |
| ETMPSPYGR | 3.1 |
| ETVERIFRR | 1.77 |
| ETYLHRIGR | 1.69 |
| EVASVWVER | 11.5 |
| EVFEYIIFR | 4.69 |
| EVINDYHFR | 5.33 |
| EVKESPFFR | 3.63 |
| EVYDIAFSR | 1.29 |
| NTLQLHRYR | 3.4 |
| NTNDFVTLR | 4.87 |
| QLYPRNFLR | 3.85 |
| SYIDRLAPR | 1.43 |
| YVQRFHYSR | 1.37 |

Further sequences by falling Kd, results first:

| Kd [nM] | Sequence |
| --- | --- |
| 5.11 | EFVDLYVPR |
| 3.64 | VVAAVRWRR |
| 3.45 | MLYGLIHAR |
| 3.22 | FTWNINHAR |
| 3.19 | MTILQTYFR |
| 2.18 | DVFPGPSFR |
| 2.11 | ETHFPFAIR |
| 1.99 | TTTEHRFFR |
| 1.79 | ETYKYLYGR |
| 1.78 | EFQDFTVPR |
| 1.43 | YVFPKPFNR |
| 1.37 | DAQRLHYYR |
| 0.95 | FVFDRPVHR |
| 0.92 | STARHLYLR |
